We go through 9 molecules from US8889392B2, “Monolignol 4-O-methyltransferases and uses thereof” (Brookhaven Science Associates, LLC, priority 2010, dated 2014).

Data set [1] can be described thus: Kinetic parameters for 4-O-methylation of coniferyl alcohol. The following applies: for fold increase of catalytic efficiency compared with the wild-type enzyme: coniferyl alcohol; for Km / Vmax: substrate coniferyl alcohol, 4-O-methylation. Format: biochemical. The protocol: E. coli transformants were inoculated in 96 well plates. Protein production was induced with 0.2 mM isopropyl β-D-1-thiogalactopyranoside, and the harvested cell cultures were lysed with 60 μl of BugBuster solution per well (Novagen). Enzymatic activity was screened using the lysates directly or after purification of the recombinant protein in a 96 well purification plate.
Screening was performed in a polypropylene microplate (Bio-Rad) containing 50 μl of the reaction in each well, 500 μM p-coniferyl-alcohol substrates, and 500 μM S-adenosyl-L-methionine augmented with (isotopic assay) or without (LC-MS assay) 0.005 μCi of [methyl-^14C]S-adenosyl-L-methionine, and 20 μl of lysates or purified protein (Ni^+ column eluate). (see Bhuiya, M. W. and Liu, C. J. (2010) J. Biol. Chem. 285:277-285 and its supplemental material).
To further optimize the catalytic efficiency of MOMT on the desired para-methylation of monolignols, based on the crystal structure of MOMT3, we identified additional amino acid residues that either directly contact or are proximate to the bound coniferyl alcohol, particularly the residues near the 3-methoxy-buried pocket. They are F130, A134, V138, L139, F157, Y161, N164, F166, Y168, H169, H173, F179, M183, N186, T319, L322, M323, A325, Y326, and N327. We then carried out the next round saturation mutagenesis on the recognized amino acid sites using MOMT3 as the parental template. […] The MOMT4 enzyme predominantly reacted with coniferyl and sinapyl alcohols, with preference for the latter, while the MOMT5 favors for coniferyl alcohol.

The nature of data set [2]: Kinetic parameters for 4-O-methylation of sinapyl alcohol. Format: biochemical. To be noted: for fold increase of catalytic efficiency compared with the wild-type enzyme: sinapyl alcohol; for Km / Vmax: substrate sinapyl alcohol, 4-O-methylation.

One may read the Km as the substrate concentration at which the rate is half of its maximum. The term Vmax denotes the top rate of the reaction or transport when substrate is in excess.

B1: T133I-E165I-F175I-F166W: IEMT tetra mutant derived from MOMT3 (protein)
chain: MGSTGNAEIQIIPTHSSDEEANLFAMQLASAAVLPMALKAAIELDVLEIMAKSVPPSGYISPAEIAAQLPTTNPEAPVMLDRVLRLLASYSVVTYTLRELPSGKVERLYGLAPVCKFLTKNEDGVSLAPFLLIATDKVLLEPWFYLKDAILEGGIPFNKAYGMNIWDYHGTDHRINKVFNKGMSSNSTITMKKILEMYNGFEGLTTIVDVGGGTGAVASMIVAKYPSINAINFDLPHVIQDAPAFSGVEHLGGDMFDGVPKGDAIFIKWICHDWSDEHCLKLLKNCYAALPDHGKVIVAEYILPPSPDPSIATKVVIHTDALMLAYNPGGKERTEKEFQALAMASGFRGFKVASCAFNTYVMEFLKTA
With B1, in data set [1], the “fold increase of catalytic efficiency compared with the wild-type enzyme” value (shortened to “fold increase of catalytic efficiency”) is listed as approximately 200 fold, the Km came out at 117 ± 15 µM and the Vmax amounted to 496 ± 8 nmol/mg/min. Also, in data set [2], the “fold increase of catalytic efficiency” value is approximately 200 fold, the Km amounted to 47 ± 8 µM and the Vmax amounted to 147 ± 4 nmol/mg/min.

B2: T133I-E165I-F175I-H169F: MOMT4 tetra mutant expressed in Arabidopsis (protein)
chain: MGSTGNAEIQIIPTHSSDEEANLFAMQLASAAVLPMALKAAIELDVLEIMAKSVPPSGYISPAEIAAQLPTTNPEAPVMLDRVLRLLASYSVVTYTLRELPSGKVERLYGLAPVCKFLTKNEDGVSLAPFLLIATDKVLLEPWFYLKDAILEGGIPFNKAYGMNIFDYFGTDHRINKVFNKGMSSNSTITMKKILEMYNGFEGLTTIVDVGGGTGAVASMIVAKYPSINAINFDLPHVIQDAPAFSGVEHLGGDMFDGVPKGDAIFIKWICHDWSDEHCLKLLKNCYAALPDHGKVIVAEYILPPSPDPSIATKVVIHTDALMLAYNPGGKERTEKEFQALAMASGFRGFKVASCAFNTYVMEFLKTA
Take B2: in data set [1], the Km turned out to be 193 ± 25 µM and the Vmax is 793 ± 32 nmol/mg/min. Besides, in data set [2], the Km came out at 68 ± 11 µM and the Vmax turned out to be 408 ± 17 nmol/mg/min.

B3: T133I-E165I-F175I-F166W-H169F: IEMT penta mutant (MOMT5) (protein)
chain: MGSTGNAEIQIIPTHSSDEEANLFAMQLASAAVLPMALKAAIELDVLEIMAKSVPPSGYISPAEIAAQLPTTNPEAPVMLDRVLRLLASYSVVTYTLRELPSGKVERLYGLAPVCKFLTKNEDGVSLAPFLLIATDKVLLEPWFYLKDAILEGGIPFNKAYGMNIWDYFGTDHRINKVFNKGMSSNSTITMKKILEMYNGFEGLTTIVDVGGGTGAVASMIVAKYPSINAINFDLPHVIQDAPAFSGVEHLGGDMFDGVPKGDAIFIKWICHDWSDEHCLKLLKNCYAALPDHGKVIVAEYILPPSPDPSIATKVVIHTDALMLAYNPGGKERTEKEFQALAMASGFRGFKVASCAFNTYVMEFLKTA
Consider B3, for which, in data set [1], the “fold increase of catalytic efficiency” value is listed as approximately 200 fold, the Km was 80 ± 6 µM and the Vmax was 440 ± 10 nmol/mg/min. Also, in data set [2], the “fold increase of catalytic efficiency” value is given as approximately 200 fold, the Michaelis-Menten constant (Km) came out at 37 ± 7 µM and the Vmax came out at 124 ± 7 nmol/mg/min.

B4: T133I-E165I-F175I-A325V: IEMT tetra mutant derived from MOMT3 (protein)
chain: MGSTGNAEIQIIPTHSSDEEANLFAMQLASAAVLPMALKAAIELDVLEIMAKSVPPSGYISPAEIAAQLPTTNPEAPVMLDRVLRLLASYSVVTYTLRELPSGKVERLYGLAPVCKFLTKNEDGVSLAPFLLIATDKVLLEPWFYLKDAILEGGIPFNKAYGMNIFDYHGTDHRINKVFNKGMSSNSTITMKKILEMYNGFEGLTTIVDVGGGTGAVASMIVAKYPSINAINFDLPHVIQDAPAFSGVEHLGGDMFDGVPKGDAIFIKWICHDWSDEHCLKLLKNCYAALPDHGKVIVAEYILPPSPDPSIATKVVIHTDALMLVYNPGGKERTEKEFQALAMASGFRGFKVASCAFNTYVMEFLKTA
For B4, in data set [1], the Km is 236 ± 50 µM and the Vmax was 446 ± 33 nmol/mg/min. Besides, in data set [2], the Km stood at 97 ± 7 µM and the Vmax amounted to 214 ± 4 nmol/mg/min.

B5: T133I-E165I-F175I-Y161F: IEMT tetra mutant derived from MOMT3 (protein)
chain: MGSTGNAEIQIIPTHSSDEEANLFAMQLASAAVLPMALKAAIELDVLEIMAKSVPPSGYISPAEIAAQLPTTNPEAPVMLDRVLRLLASYSVVTYTLRELPSGKVERLYGLAPVCKFLTKNEDGVSLAPFLLIATDKVLLEPWFYLKDAILEGGIPFNKAFGMNIFDYHGTDHRINKVFNKGMSSNSTITMKKILEMYNGFEGLTTIVDVGGGTGAVASMIVAKYPSINAINFDLPHVIQDAPAFSGVEHLGGDMFDGVPKGDAIFIKWICHDWSDEHCLKLLKNCYAALPDHGKVIVAEYILPPSPDPSIATKVVIHTDALMLAYNPGGKERTEKEFQALAMASGFRGFKVASCAFNTYVMEFLKTA
As to B5, in data set [1], the Km amounted to 197 ± 21 µM and the Vmax was found to be 642 ± 24 nmol/mg/min. In data set [2], the Km was 206 ± 25 µM and the Vmax stood at 289 ± 12 nmol/mg/min.

B6: T133I-E165I-F175I-H169M: IEMT tetra mutant derived from MOMT3 (protein)
chain: MGSTGNAEIQIIPTHSSDEEANLFAMQLASAAVLPMALKAAIELDVLEIMAKSVPPSGYISPAEIAAQLPTTNPEAPVMLDRVLRLLASYSVVTYTLRELPSGKVERLYGLAPVCKFLTKNEDGVSLAPFLLIATDKVLLEPWFYLKDAILEGGIPFNKAYGMNIFDYMGTDHRINKVFNKGMSSNSTITMKKILEMYNGFEGLTTIVDVGGGTGAVASMIVAKYPSINAINFDLPHVIQDAPAFSGVEHLGGDMFDGVPKGDAIFIKWICHDWSDEHCLKLLKNCYAALPDHGKVIVAEYILPPSPDPSIATKVVIHTDALMLAYNPGGKERTEKEFQALAMASGFRGFKVASCAFNTYVMEFLKTA
As for B6, in data set [1], the Km is 220 ± 27 µM and the Vmax was 629 ± 26 nmol/mg/min. Besides, in data set [2], the Km was 89 ± 10 µM and the Vmax stood at 370 ± 11 nmol/mg/min.

B7: T133I-E165I-F175I-Y326F-N327V: IEMT penta mutant derived from MOMT3 (protein)
chain: MGSTGNAEIQIIPTHSSDEEANLFAMQLASAAVLPMALKAAIELDVLEIMAKSVPPSGYISPAEIAAQLPTTNPEAPVMLDRVLRLLASYSVVTYTLRELPSGKVERLYGLAPVCKFLTKNEDGVSLAPFLLIATDKVLLEPWFYLKDAILEGGIPFNKAYGMNIFDYHGTDHRINKVFNKGMSSNSTITMKKILEMYNGFEGLTTIVDVGGGTGAVASMIVAKYPSINAINFDLPHVIQDAPAFSGVEHLGGDMFDGVPKGDAIFIKWICHDWSDEHCLKLLKNCYAALPDHGKVIVAEYILPPSPDPSIATKVVIHTDALMLAFVPGGKERTEKEFQALAMASGFRGFKVASCAFNTYVMEFLKTA
On to B7, for which, in data set [1], the Km stood at 196 ± 44 µM and the Vmax is 520 ± 25 nmol/mg/min. Also, in data set [2], the Km is 340 ± 30 µM and the Vmax worked out at 429 ± 15 nmol/mg/min.

B8: T133L-E165F: IEMT double mutant variant (protein)
chain: MGSTGNAEIQIIPTHSSDEEANLFAMQLASAAVLPMALKAAIELDVLEIMAKSVPPSGYISPAEIAAQLPTTNPEAPVMLDRVLRLLASYSVVTYTLRELPSGKVERLYGLAPVCKFLTKNEDGVSLAPFLLLATDKVLLEPWFYLKDAILEGGIPFNKAYGMNFFDYHGTDHRFNKVFNKGMSSNSTITMKKILEMYNGFEGLTTIVDVGGGTGAVASMIVAKYPSINAINFDLPHVIQDAPAFSGVEHLGGDMFDGVPKGDAIFIKWICHDWSDEHCLKLLKNCYAALPDHGKVIVAEYILPPSPDPSIATKVVIHTDALMLAYNPGGKERTEKEFQALAMASGFRGFKVASCAFNTYVMEFLKTA
Take B8: the Km came to 280 ± 18 µM in data set [1] and 382 ± 32 µM in data set [2]. For the same molecule, the Vmax in data set [1] stood at 117 ± 3 nmol/mg/min; in data set [2] it was 103 ± 4 nmol/mg/min.

B9: T133I-E165I-F175I-Y161W: IEMT tetra mutant derived from MOMT3 (protein)
chain: MGSTGNAEIQIIPTHSSDEEANLFAMQLASAAVLPMALKAAIELDVLEIMAKSVPPSGYISPAEIAAQLPTTNPEAPVMLDRVLRLLASYSVVTYTLRELPSGKVERLYGLAPVCKFLTKNEDGVSLAPFLLIATDKVLLEPWFYLKDAILEGGIPFNKAWGMNIFDYHGTDHRINKVFNKGMSSNSTITMKKILEMYNGFEGLTTIVDVGGGTGAVASMIVAKYPSINAINFDLPHVIQDAPAFSGVEHLGGDMFDGVPKGDAIFIKWICHDWSDEHCLKLLKNCYAALPDHGKVIVAEYILPPSPDPSIATKVVIHTDALMLAYNPGGKERTEKEFQALAMASGFRGFKVASCAFNTYVMEFLKTA
In the case of B9, in data set [1], the Km is 196 ± 34 µM and the Vmax is 584 ± 37 nmol/mg/min. For the same molecule, in data set [2], the Km was determined as 219 ± 19 µM and the Vmax came out at 259 ± 8 nmol/mg/min.
